# In publication PMC10328077:
# Assays:
# [1] = molecular target: NT647-labeled apoE2(1–165) fragment (human); assay: MST; labelled apoE2(1-165) at 2.8 nM held constant, FH402H, FH402Y, FH1-4 or FH19-20 titrated; n = 3; Kd fit model of normalized (ΔFnorm) values; 150 mM KCl, 25 mM HEPES pH 7.5, 0.01% Tween 20, 0.01% NaN3
# [2] = molecular target: NT647-FH5-7 402Y (human) (UniProt P08603); assay: MST; NT647-FH5-7 402Y at 35 nM held constant, apoE2, apoE3 or apoE4 titrated; n = 3; Kd fit model of normalized (ΔFnorm) values; 150 mM KCl, 25 mM HEPES pH 7.5, 0.01% Tween 20, 0.01% NaN3
# [3] = molecular target: complement factor H (FH), NT647-labeled full-length FH (human) (UniProt P08603); assay: MST; FH at 2 nM held constant (NT647-labelled by the legend of Fig 1I), native apoE2 or native apoE4 titrated; n = 3; Kd fit model of normalized (ΔFnorm) values; 150 mM KCl, 25 mM HEPES pH 7.5, 0.01% Tween 20, 0.01% NaN3
# Sequence of complement factor H (FH), NT647-labeled full-length FH (human) (P08603 19-1231): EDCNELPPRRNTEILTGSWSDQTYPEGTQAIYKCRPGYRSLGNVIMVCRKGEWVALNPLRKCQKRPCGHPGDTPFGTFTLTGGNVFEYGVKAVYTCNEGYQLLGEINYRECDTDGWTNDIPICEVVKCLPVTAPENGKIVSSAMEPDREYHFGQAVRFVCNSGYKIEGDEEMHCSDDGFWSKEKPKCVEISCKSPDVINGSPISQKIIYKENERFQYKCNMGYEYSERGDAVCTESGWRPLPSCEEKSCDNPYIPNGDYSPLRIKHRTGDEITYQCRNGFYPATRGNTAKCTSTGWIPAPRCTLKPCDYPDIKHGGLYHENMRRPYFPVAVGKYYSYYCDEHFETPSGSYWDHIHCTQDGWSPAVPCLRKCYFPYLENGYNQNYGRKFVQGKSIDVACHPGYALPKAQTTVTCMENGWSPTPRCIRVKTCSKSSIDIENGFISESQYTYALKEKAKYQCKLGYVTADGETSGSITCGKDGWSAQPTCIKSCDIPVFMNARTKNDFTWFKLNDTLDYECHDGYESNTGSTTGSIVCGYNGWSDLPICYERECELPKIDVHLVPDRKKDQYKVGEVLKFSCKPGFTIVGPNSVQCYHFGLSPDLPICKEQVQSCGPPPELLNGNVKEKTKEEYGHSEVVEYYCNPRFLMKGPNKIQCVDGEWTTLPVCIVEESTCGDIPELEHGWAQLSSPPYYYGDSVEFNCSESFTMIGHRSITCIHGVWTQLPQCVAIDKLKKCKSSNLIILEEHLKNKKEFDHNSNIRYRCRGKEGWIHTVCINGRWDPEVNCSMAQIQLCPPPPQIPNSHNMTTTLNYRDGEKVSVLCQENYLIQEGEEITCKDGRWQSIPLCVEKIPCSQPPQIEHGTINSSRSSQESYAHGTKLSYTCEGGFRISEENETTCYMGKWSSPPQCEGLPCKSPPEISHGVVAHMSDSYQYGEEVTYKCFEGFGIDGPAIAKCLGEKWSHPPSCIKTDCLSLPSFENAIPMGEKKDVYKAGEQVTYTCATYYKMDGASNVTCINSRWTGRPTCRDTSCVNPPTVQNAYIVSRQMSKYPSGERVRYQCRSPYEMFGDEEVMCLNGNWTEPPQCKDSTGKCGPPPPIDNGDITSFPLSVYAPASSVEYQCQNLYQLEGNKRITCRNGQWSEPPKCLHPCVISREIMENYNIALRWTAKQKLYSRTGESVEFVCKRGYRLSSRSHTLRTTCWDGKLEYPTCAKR
# Sequence of NT647-FH5-7 402Y (human) (P08603 19-1231): as above
# Sequence of FH402Y (P08603 19-1231): as above
# Sequence of FH402H (P08603 19-1231 Y402H): as the sequence (P08603 19-1231) above, with Y384H counted along it
Kd [1] [nM],Kd [2] [nM],Substance,other results
999,,FH1-4 (domain or fragment),
496,,FH402H (from UniProt P08603 19-1231) (natural protein),
253,,FH402Y (from UniProt P08603 19-1231) (natural protein),
,1380,apoE3 (from UniProt P02649 19-317) (natural protein),
,1940,apoE4 (from UniProt P02649 19-317) (natural protein),

# Second part, the substance before the results:
Substance,Kd [1] [nM],Kd [2] [nM],other results
apoE2 (from UniProt P02649 19-317) (natural protein),,1000,
native apoE2 (from UniProt P02649 19-317) (natural protein),,,Kd [3]: 2 nM
native apoE4 (from UniProt P02649 19-317) (natural protein),,,Kd [3]: 300 nM
